Assay results reported in patent publication US5446130A, “Parathyroid hormone antagonists” (Mitsubishi Kasei Corporation, priority 1990, dated 1995).
Where no end group is shown, it is not given here. The star is where a group is joined. Myristoyl = CCCCCCCCCCCCCC(=O)*

T1: hPTH (1-34) (human, UniProt P01270)
T1 peptide: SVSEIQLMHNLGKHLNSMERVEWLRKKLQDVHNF

B1: Compound No. 22 (peptide)
peptide: Myristoyl-IQLMHDKGKSIQDLRRRFFLHHLIAEIHTA-NH2
SMILES: CCCCCCCCCCCCCC(=O)N[C@H](C(=O)N[C@@H](CCC(N)=O)C(=O)N[C@@H](CC(C)C)C(=O)N[C@@H](CCSC)C(=O)N[C@@H](Cc1c[nH]cn1)C(=O)N[C@@H](CC(=O)O)C(=O)N[C@@H](CCCCN)C(=O)NCC(=O)N[C@@H](CCCCN)C(=O)N[C@@H](CO)C(=O)N[C@H](C(=O)N[C@@H](CCC(N)=O)C(=O)N[C@@H](CC(=O)O)C(=O)N[C@@H](CC(C)C)C(=O)N[C@@H](CCCNC(=N)N)C(=O)N[C@@H](CCCNC(=N)N)C(=O)N[C@@H](CCCNC(=N)N)C(=O)N[C@@H](Cc1ccccc1)C(=O)N[C@@H](Cc1ccccc1)C(=O)N[C@@H](CC(C)C)C(=O)N[C@@H](Cc1c[nH]cn1)C(=O)N[C@@H](Cc1c[nH]cn1)C(=O)N[C@@H](CC(C)C)C(=O)N[C@H](C(=O)N[C@@H](C)C(=O)N[C@@H](CCC(=O)O)C(=O)N[C@H](C(=O)N[C@@H](Cc1c[nH]cn1)C(=O)N[C@H](C(=O)N[C@@H](C)C(N)=O)[C@@H](C)O)[C@@H](C)CC)[C@@H](C)CC)[C@@H](C)CC)[C@@H](C)CC

system: output of cAMP produced by 5×10^-9 M hPTH (1-34) in cultured mouse osteoblast MC3T3-E1; test: Determination of PTH antagonism: inhibition of cAMP output induced by hPTH (1-34) in cultured mouse osteoblast MC3T3-E1; format: cell-based; settings: Table 3, 50% inhibition of cAMP output by 5×10^-9 M hPTH (1-34), ratio to control [Tyr34]-hPTH (3-34)-NH2 = 1
Procedure: PTH antagonism of the PTHrP derivatives (I) of the present invention was determined on the basis of the output of cAMP, using cultured mouse osteoblast MC3T3-E1.
To a multiwell-culture plate of 12-well were inoculated 1×10^5 cells/well of the cultured cells, and the plate was incubated at 37° C. under 95% air-5% CO2 atmosphere for 3 days after addition of α-modified MEM containing 10% semi-fetal bovine serum as a medium. Then, the medium was exchanged with α-modified MEM containing 1% bovine serum albumin and the cultured cells were incubated for 6 hours. The medium was replaced by α-modified MEM containing various concentrations of the compound of the present invention, 5×10^-9 M hPTH (1-34), 1% bovine serum albumin and 1 mM isobutylmethylxanthin, and the mixture was incubated for 1 hour. The medium was separated from the cells, and the medium was used as a sample for assaying cAMP. The cells were shaken with 90% n-propyl alcohol to extract cAMP according to Yamaguchi et al., J. Biol. Chem., 262, 7711-7718 (1987) for preparing another sample.
Assay of cAMP was performed using a commercially available cAMP-radioimmunoassay kit. […] Compound numbers in the tables correspond to those in Table 2.

IC50 Ratio | Molecule
1 | [Tyr^34 ]-hPTH (3-34)-NH2 [(Tyr34)--hPTH(3-34)--NH2, reference compound]

same assay, conditions: Table 4, 50% inhibition of cAMP output by 5×10^-9 M hPTH (1-34), ratio to control Compound No. 15 = 1

IC50 Ratio | Molecule
0.765 | CCCCCCCCCCCCCC(=O)N[C@H](C(=O)N[C@@H](CCC(N)=O)C(=O)N[C@@H](CC(C)C)C(=O)N[C@@H](CCSC)C(=O)N[C@@H](Cc1c[nH]cn1)C(=O)N[C@@H](CC(=O)O)C(=O)N[C@@H](CCCCN)C(=O)NCC(=O)N[C@@H](CCCCN)C(=O)N[C@@H](CO)C(=O)N[C@H](C(=O)N[C@@H](CCC(N)=O)C(=O)N[C@@H](CC(=O)O)C(=O)N[C@@H](CC(C)C)C(=O)N[C@@H](CCCNC(=N)N)C(=O)N[C@@H](CCCNC(=N)N)C(=O)N[C@@H](CCCNC(=N)N)C(=O)N[C@@H](Cc1ccccc1)C(=O)N[C@@H](Cc1ccccc1)C(=O)N[C@@H](CC(C)C)C(=O)N[C@@H](Cc1c[nH]cn1)C(=O)N[C@@H](Cc1c[nH]cn1)C(=O)N[C@@H](CC(C)C)C(=O)N[C@H](C(=O)N[C@@H](C)C(=O)N[C@@H](CCC(=O)O)C(=O)N[C@H](C(=O)N[C@@H](Cc1c[nH]cn1)C(=O)N[C@H](C(=O)N[C@@H](C)C(N)=O)[C@@H](C)O)[C@@H](C)CC)[C@@H](C)CC)[C@@H](C)CC)[C@@H](C)CC [Compound No. 22]
1.01 | IQLMHDKGKSIQDLRRRFFLHKLIAEIHTA-NH2 [Compound No. 20]
0.934 | IQLMHDKGKSIQDLRRRFFLRHLIAEIHTA-NH2 [Compound No. 19]
3.91 | [Leu^11,D-Trp^12 ]-hPTHrP(7-34)-NH2 [(Leu11,D--Trp12)--hPTHrP(7-34)--NH2, reference compound]

Molecular target: T1, hPTH (1-34)
Test: not given
Settings: scale: ratio of IC50 to that of [Tyr34]-hPTH(3-34)-NH2

IC50 Ratio: 50% inhibition of cAMP output, MC3T3-E1 mouse osteoblasts | Molecule
1 | [Tyr^34]-hPTH (3-34)-NH2 (from UniProt P01270) (peptide)

Molecular target: T1, hPTH (1-34)
Test: not given
Settings: not given

IC50 Ratio: 50% inhibition of cAMP output, MC3T3-E1 mouse osteoblasts (ratio of IC50 to that of Compound No. 15) | Molecule
3.91 | [Leu^11,D-Trp^12]-hPTHrP(7-34)-NH2 (from UniProt P12272) (peptide)

Molecular target: T1, hPTH (1-34)
Test: cell-based or functional assay
Settings: not given

IC50 Ratio: 50% inhibition of cAMP output, MC3T3-E1 mouse osteoblasts | Molecule
0.934 ratio of IC50 to that of Compound No. 15 | IQLMHDKGKSIQDLRRRFFLRHLIAEIHTA-NH2 [Compound No. 19]
1.97 ratio of IC50 to that of Compound No. 15 | IQLMHALGKSIQDLRRRFFLHHLIAEIHTA-NH2 [Compound No. 18]
0.922 ratio of IC50 to that of Compound No. 15 | IQXMHDKGKSIQDLRRRFFLHHLIAEIHTA (Nle (norleucine) as third residue (EEE); C-terminal amide (Ala-NH2)) [Compound No. 14]
1.17 ratio of IC50 to that of Compound No. 15 | IQLMHAKGKSIQDLRRRFFLHHLIAEIHTA-NH2 [Compound No. 17]
2.24 ratio of IC50 to that of Compound No. 15 | XLMHDKGKSIQDLRRRFFLHHLIAEIHTA (N-terminal myristoyl (Myr-Gln); C-terminal amide (Ala-NH2)) [Compound No. 10]
1.02 ratio of IC50 to that of Compound No. 15 | LQLMHDKGKSIQDLRRRFFLHHLIAEIHTA-NH2 [Compound No. 9]
1.01 ratio of IC50 to that of Compound No. 15 | IQLMHDKGKSIQDLRRRFFLHKLIAEIHTA-NH2 [Compound No. 20]
0.765 ratio of IC50 to that of Compound No. 15 | B1
1 ratio of IC50 to that of Compound No. 15 | IQLMHDKGKSIQDLRRRFFLHHLIAEIHTA-NH2 [[Ile^5, Met^8]-hPTHrP (5-34)-NH2]
0.934 ratio of IC50 to that of Compound No. 15 | Ac-IQLMHDKGKSIQDLRRRFFLHHLIAEIHTA-NH2 [Compound No. 21]

Molecular target: T1, hPTH (1-34)
Test: cell-based or functional assay
Settings: not given
Remark: another data set of the same source

IC50 Ratio: 50% inhibition of cAMP output, MC3T3-E1 mouse osteoblasts | Molecule
0.003 ratio of IC50 to that of [Tyr34]-hPTH(3-34)-NH2 | SEIQLMHALGKSIQDLRRRFFLHHLIAEIHTA-NH2 [Compound No. 1]
0.026 ratio of IC50 to that of [Tyr34]-hPTH(3-34)-NH2 | FQLMHDKGKSIQDLRRRFFLHHLIAEIHTA-NH2 [Compound No. 8]
0.017 ratio of IC50 to that of [Tyr34]-hPTH(3-34)-NH2 | IQLMHDKGKSIQDLRRRFFLHHLIAEIHTA-NH2 [[Ile^5, Met^8]-hPTHrP (5-34)-NH2]
0.003 ratio of IC50 to that of [Tyr34]-hPTH(3-34)-NH2 | SEIQLMHQLGKSIQDLRRRFFLHHLIAEIHTA-NH2 [Compound No. 2]
